Data on 6 substances can be found in article PMC5103873.

Test [1] concerns the target arrestin3. Nature of the test: dual-color FRAP of arrestin3–CFP. Particulars: reference: wild type.
Test [2] deals with arrestin3. Nature of the test: single-cell FRET, PTH1R–eYFP / arrestin3–CFP.
Test [3] addresses parathyroid hormone receptor 1 (PTH1R) wild type, N-terminally HA-tagged, C-terminally eYFP-labelled (human) (UniProt Q03431).
Test [4] has as its target PTH1R PD3 mutant (mutations of clusters 1 and 2 combined), HA- and eYFP-tagged (human) (UniProt Q03431).
Test [5] concerns the target arrestin3. Nature of the test: BRET, arrestin3–Rluc / PTH1R–eYFP. Particulars: reference: wild type. On the technique in general: In BRET a luciferase serves as donor, and the signal depends on an acceptor being close.
Where [6] appears, read: sites S489,S491,S492,S493,S495,S501,T503,S504,T506.

As to “PTH1R (parathyroid hormone receptor 1) (from UniProt Q03431) T503A, S504A”, in the test with arrestin3 [1] (sites T503,S504), the “other: arrestin3 recovery after photobleaching” value (“other: arrestin3 recovery” for short) was “weaker; reference 19.07 ± 0.68–23.94 ± 0.86”. Also, the “other: agonist-induced FRET change” value in the test with arrestin3 [2] (reference: wild type, sites T503,S504) is on record as “weaker; reference 24.8 ± 12.7”.
Turning to PTH(1–34) (peptide), in test [3], the pEC50 of PTH(1–34) for cAMP accumulation (HTRF) in HEK293 cells transfected with HA–PTH1R WT (without YFP), 15 min, 100 µM IBMX came to 10.9. Further, the pEC50 of PTH(1–34) for cAMP accumulation (HTRF) in HEK293 cells transfected with HA–PTH1R PD3 (without YFP), 15 min, 100 µM IBMX in test [4] is 11.3.
Turning to “PTH1R (parathyroid hormone receptor 1) (from UniProt Q03431) PD2 (cluster 2 S/T to Ala)”, the “other: arrestin3 recovery” value with arrestin3 [1] (sites S501,T503,S504,T506) was “weaker; reference 19.07 ± 0.68–23.94 ± 0.86”. This substance showed a percent of reference (% of WT maximum BRET) in the test with arrestin3 [5] (sites S501,T503,S504,T506) of 66.9.
“PTH1R (parathyroid hormone receptor 1) (from UniProt Q03431) PD1 (cluster 1 S/T to Ala)”: in the test with arrestin3 [1] (sites S489,S491,S492,S493,S495), the “other: arrestin3 recovery” value is reported as “same; reference 19.07 ± 0.68–23.94 ± 0.86”. Also, the other: reduction of FRET signal vs WT with arrestin3 [2] (reference: wild type, sites S489,S491,S492,S493,S495) was 42.1%. The substance also displayed a percent of reference (% of WT maximum BRET) in the test with arrestin3 [5] (sites S489,S491,S492,S493,S495) of 80.8.
In turn, “PTH1R (parathyroid hormone receptor 1) (from UniProt Q03431) 100 nM PTH(1–34)” gave an other: increase in FRET with arrestin3 [2] (reference: before agonist) of 24.8%.
Turning to “PTH1R (parathyroid hormone receptor 1) (from UniProt Q03431) PD3 (clusters 1 and 2 S/T to Ala)”, in the test with arrestin3 [1] (setting [6]), the “other: arrestin3 recovery” value is “weaker; reference 19.07 ± 0.68–23.94 ± 0.86”. Moreover, in the test with arrestin3 [5] (setting [6]), the percent of reference (% of WT maximum BRET) amounted to 46.6.
